Source: PMC3328447, “DNA Aptamers against the Lup an 1 Food Allergen”

Legend:
[1] = test system: beta-conglutin (Lup an 1) (lupin); test: SPR; details: 10 mM phosphate, 138 mM NaCl, 2.7 mM KCl, 1.5 mM MgCl2, pH 7.4; ELONA at 21 C, SPR temperature not stated (Biacore 3000, CM5)
[2] = test system: beta-conglutin (Lup an 1) (lupin); test: competition; details: 10 mM phosphate, 138 mM NaCl, 2.7 mM KCl, 1.5 mM MgCl2, pH 7.4; ELONA at 21 C, SPR temperature not stated (Biacore 3000, CM5)
gamma-conglutin = biological target: T1, gamma-conglutin (lupin, UniProt Q9FSH9;Q9FSH9 34-300;301-452); test: SPR; 10 uM DNA, 1.5 mM Mg2+; signal negligible; 10 mM phosphate, 138 mM NaCl, 2.7 mM KCl, 1.5 mM MgCl2, pH 7.4; ELONA at 21 C, SPR temperature not stated (Biacore 3000, CM5); details: protein: native, tags: none, label: none, single strand, predicted stem-loops and G-quadruplex (m-fold, QGRS)
T1 sequence 1: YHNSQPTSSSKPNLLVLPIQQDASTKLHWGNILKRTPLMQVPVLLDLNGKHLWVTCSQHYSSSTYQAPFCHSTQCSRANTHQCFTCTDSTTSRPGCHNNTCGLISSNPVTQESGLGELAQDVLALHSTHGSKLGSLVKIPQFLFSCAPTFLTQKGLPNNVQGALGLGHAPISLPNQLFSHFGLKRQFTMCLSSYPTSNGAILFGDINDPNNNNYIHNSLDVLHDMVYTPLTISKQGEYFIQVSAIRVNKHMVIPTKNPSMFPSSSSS
T1 sequence 2: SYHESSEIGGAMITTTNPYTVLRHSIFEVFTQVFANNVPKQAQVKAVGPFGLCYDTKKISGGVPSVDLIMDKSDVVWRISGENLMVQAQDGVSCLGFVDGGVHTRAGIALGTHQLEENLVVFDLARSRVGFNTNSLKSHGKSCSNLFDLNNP

AGCTGACACAGCAGGTTGGTGGGGGTGGCTCACATCATGGTAGAATGACTGAACAGCGTTGATTAAAAGGCACGAGTCGAGCAATCTCGAAAT [Sequence 2 (S2)]
Kd [1]: 515 nM

AGCTGACACAGCAGGTTGGTGGGGGTGGCTTCCAGTTGGGTTGACAATACGTAGGGACACGAAGTCCAACCACGAGTCGAGCAATCTCGAAAT [Sequence 40 (S40)]
IC50 [2]: 393 nM | Kd [1]: 360 nM

B1: Sequence 40 (S40) (structured_DNA)
DNA: AGCTGACACAGCAGGTTGGTGGGGGTGGCTTCCAGTTGGGTTGACAATACGTAGGGACACGAAGTCCAACCACGAGTCGAGCAATCTCGAAAT
binding result (gamma-conglutin; biotinylated probe S4 hybridised to 3' end for ELONA detection): no binding

B2: Sequence 2 (S2) (structured_DNA)
DNA: AGCTGACACAGCAGGTTGGTGGGGGTGGCTCACATCATGGTAGAATGACTGAACAGCGTTGATTAAAAGGCACGAGTCGAGCAATCTCGAAAT
binding result (gamma-conglutin): no binding
